Measured values from article PMC3602594.
Where no end group is shown, it is not given here.

Assays:
[1] = biological target: Atto647N-YidC-23C (Escherichia coli) (UniProt P25714)
[2] = biological target: Atto647N-YidC-23C (Escherichia coli) (UniProt P25714); test: FRET or BRET; single-pair FRET by confocal microscopy with alternating laser excitation (514 nm / 635 nm); Atto520-labeled Pf3 coat protein added to Atto647N-labeled YidC reconstituted in DOPC proteoliposomes; 20 mM Tris-HCl pH 7.0, 100 mM NaCl, isopropanol from the Pf3 solution; about 0.2 nM of both labeled proteins; bursts recorded for 420 s
[3] = biological target: Atto647N-YidC-442C (Escherichia coli) (UniProt P25714); test: as above
[4] = biological target: Atto647N-YidC-511C (Escherichia coli) (UniProt P25714); test: as above

B1: Atto520-Pf3-16C (natural protein)
chain: MQSVITDVTGQLTAVC(Atto520‑maleimide)ADITTIGGAIIVLAAVVLGIRWIKAQFF
insertion rate k (reciprocal of the time required for a distance change from 6.2 to 4.0 nm in single-pair FRET traces), at 15, 20, 25 and 30°C; k ≈ 250 s^−1 at 15°C [1]: 500 s⁻¹ | duration of the close contact [2]: 10 ms | duration of the close contact [3]: 10 ms | duration of the close contact [4]: 10 ms
